Biological target: the molecule itself
Experiment: cryo-EM structure; hTopo IIα with 30 bp doubly nicked DNA (1:1, 20 µM), 0.5 mM etoposide, 0.5 mM ADPNP, cross-linked with 1 mM BS3; 20 mM Hepes, 100 mM KAc, 50 mM Na-glutamate, 5 mM MgAc2, 0.5 mM TCEP, pH 7.5, 8 mM CHAPSO; single-particle analysis, State 1 (closed) and State 2 (pre-open)

B1: full-length human Topo IIα (1–1531) (enzyme, UniProt P11388 1-1531, looked up)
chain: MEVSPLQPVNENMQVNKIKKNEDAKKRLSVERIYQKKTQLEHILLRPDTYIGSVELVTQQMWVYDEDVGINYREVTFVPGLYKIFDEILVNAADNKQRDPKMSCIRVTIDPENNLISIWNNGKGIPVVEHKVEKMYVPALIFGQLLTSSNYDDDEKKVTGGRNGYGAKLCNIFSTKFTVETASREYKKMFKQTWMDNMGRAGEMELKPFNGEDYTCITFQPDLSKFKMQSLDKDIVALMVRRAYDIAGSTKDVKVFLNGNKLPVKGFRSYVDMYLKDKLDETGNSLKVIHEQVNHRWEVCLTMSEKGFQQISFVNSIATSKGGRHVDYVADQIVTKLVDVVKKKNKGGVAVKAHQVKNHMWIFVNALIENPTFDSQTKENMTLQPKSFGSTCQLSEKFIKAAIGCGIVESILNWVKFKAQVQLNKKCSAVKHNRIKGIPKLDDANDAGGRNSTECTLILTEGDSAKTLAVSGLGVVGRDKYGVFPLRGKILNVREASHKQIMENAEINNIIKIVGLQYKKNYEDEDSLKTLRYGKIMIMTDQDQDGSHIKGLLINFIHHNWPSLLRHRFLEEFITPIVKVSKNKQEMAFYSLPEFEEWKSSTPNHKKWKVKYYKGLGTSTSKEAKEYFADMKRHRIQFKYSGPEDDAAISLAFSKKQIDDRKEWLTNFMEDRRQRKLLGLPEDYLYGQTTTYLTYNDFINKELILFSNSDNERSIPSMVDGLKPGQRKVLFTCFKRNDKREVKVAQLAGSVAEMSSYHHGEMSLMMTIINLAQNFVGSNNLNLLQPIGQFGTRLHGGKDSASPRYIFTMLSSLARLLFPPKDDHTLKFLYDDNQRVEPEWYIPIIPMVLINGAEGIGTGWSCKIPNFDVREIVNNIRRLMDGEEPLPMLPSYKNFKGTIEELAPNQYVISGEVAILNSTTIEISELPVRTWTQTYKEQVLEPMLNGTEKTPPLITDYREYHTDTTVKFVVKMTEEKLAEAERVGLHKVFKLQTSLTCNSMVLFDHVGCLKKYDTVLDILRDFFELRLKYYGLRKEWLLGMLGAESAKLNNQARFILEKIDGKIIIENKPKKELIKVLIQRGYDSDPVKAWKEAQQKVPDEEENEESDNEKETEKSDSVTDSGPTFNYLLDMPLWYLTKEKKDELCRLRNEKEQELDTLKRKSPSDLWKEDLATFIEELEAVEAKEKQDEQVGLPGKGGKAKGKKTQMAEVLPSPRGQRVIPRITIEMKAEAEKKNKKKIKNENTEGSPQEDGVELEGLKQRLEKKQKREPGTKTKKQTTLAFKPIKKGKKRNPWSDSESDRSSDESNFDVPPRETEPRRAATKTKFTMDLDSDEDFSDFDEKTDDEDFVPSDASPPKTKTSPKLSNKELKPQKSVVSDLEADDVKGSVPLSSSPPATHFPDETEITNPVPKKNVTVKKTAAKSQSSTSTTGAKKRAAPKGTKRDPALNSGVSQKPDPAKTKNRRKRKPSTSDDSDSNFEKIVSKAVTSKKSKGESDDFHMDFDSAVAPRAKSVRAKKPIKYLEESDEDDLF
notes: human DNA topoisomerase IIα (TOP2A gene), full length, residues 1-1531; Homodimer; Tags were removed with P3C (PreScission) protease; also called hTopo IIα; human topoisomerase IIα isoform; source: BHK21 C13-2P cells infected with recombinant MVA-T7 virus, purified (Ni chelating resin, StrepTrap, heparin); not shown: Twin-strep, N-terminal, cleaved; His10, C-terminal, cleaved
binding result: binds
